Results from paper doi:10.1101/2022.04.29.490116.
Like-named read-outs stand apart in the source and are kept apart here.

Assays:
[1] = target: StbA of plasmid R388, full length, C-terminally (His)6-tagged (enterobacterial plasmid R388); assay: SEC
StbA [2] = target: T1, StbA (Escherichia coli plasmid R388, UniProt Q6I6C4 1-141); assay: EMSA
T1 sequence: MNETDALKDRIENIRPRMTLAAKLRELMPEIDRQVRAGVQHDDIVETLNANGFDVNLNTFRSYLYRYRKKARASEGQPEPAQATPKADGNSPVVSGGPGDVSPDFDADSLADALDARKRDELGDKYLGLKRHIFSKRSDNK

StbA [3] = target: T1, StbA; assay: EMSA; remark: listed apart in the source
StbA1-75 [4] = target: T2, StbA1-75 (Escherichia coli plasmid R388, UniProt Q6I6C4 1-75); assay: EMSA
T2 sequence: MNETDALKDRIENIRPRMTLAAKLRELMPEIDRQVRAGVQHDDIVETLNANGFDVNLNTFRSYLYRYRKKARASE

StbA [5] = target: T1, StbA; assay: EMSA; remark: listed apart in the source
StbA1-75 [6] = target: T2, StbA1-75; assay: EMSA; remark: listed apart in the source
StbA [7] = target: T1, StbA; assay: EMSA; remark: listed apart in the source
StbA1-75 [8] = target: T2, StbA1-75; assay: EMSA; remark: listed apart in the source
StbA [9] = target: T1, StbA; assay: EMSA; remark: listed apart in the source
StbA [10] = target: T1, StbA; assay: EMSA; remark: listed apart in the source

Molecule: StbA of plasmid R388, full length, C-terminally (His)6-tagged (natural protein)
- stoichiometry N [1]: 2

B1: stb0 (dsDNA)
DNA 1: CCTTAAACGGCCTATTGTTTCCAAGCGGAGTGACAACAAATGAAAGTAGCTGTGCTTAAGTATTCAACAAAGCCGCCGTC
DNA 2: GACGGCGGCTTTGTTGAATACTTAAGCACAGCTACTTTCATTTGTTGTCACTCCGCTTGGAAACAATAGGCCGTTTAAGG
- binding result (StbA [2]): no binding

B2: stb3 (dsDNA)
DNA 1: TAGCTCATTCTGTTCTTGCTTGCTGCATCATCACTGCATCATAGCTGCATCATCAATGCCGATCTAGCTCATTACTGTTC
DNA 2: GAACAGTAATGAGCTAGATCGGCATTGATGATGCAGCTATGATGCAGTGATGATGCAGCAAGCAAGAACAGAATGAGCTA
- binding result (StbA [3]): binds
- binding result (StbA1-75 [4]): binds

B3: stb5a (dsDNA)
DNA 1: CCGTTTTAGCTCATTTTCTGCATCATTGTAGCACCATCATAGCATTATAGTTGCATCATTGCTGCACGATAACCCAATGC
DNA 2: GCATTGGGTTATCGTGCAGCAATGATGCAACTATAATGCTATGATGGTGCTACAATGATGCAGAAAATGAGCTAAAACGG
- binding result (StbA [5]): binds
- binding result (StbA1-75 [6]): binds

B4: stb2 (dsDNA)
DNA 1: CCGTTCTAGCTCATTCTGTTCTTGCTTGCTGCATCATCACTGCATCATCCCAATGCCGATCTAGCTCATTACTGTTCTAT
DNA 2: ATAGAACAGTAATGAGCTAGATCGGCATTGGGATGATGCAGTGATGATGCAGCAAGCAAGAACAGAATGAGCTAGAACGG
- binding result (StbA [7]): binds
- binding result (StbA1-75 [8]): binds

B5: stb5 (dsDNA)
DNA 1: TCTGTTCTTGCTTGCTGCATCATCACTGCATCATCACTGCATCATCACTGCATCATCACTGCATCATATGCCGATCTAGC
DNA 2: GCTAGATCGGCATATGATGCAGTGATGATGCAGTGATGATGCAGTGATGATGCAGTGATGATGCAGCAAGCAAGAACAGA
- binding result (StbA [9]): binds

B6: stb5b (dsDNA)
DNA 1: TTGCCTGCATCATAGCTGTCCTATGACTGCATCACATTTGCATCATACATGCATTATTTC
DNA 2: GAAATAATGCATGTATGATGCAAATGTGATGCAGTCATAGGACAGCTATGATGCAGGCAA
- binding result (StbA [10]): binds
